Results published in PMC4255369, “Identification of structural determinants on tau protein essential for its pathological function: novel therapeutic target for tau immunotherapy in Alzheimer’s disease” (Alzheimer's Research & Therapy, 2014).

Legend:
Conditions in all cases: both partners purified
[1] = biological target: T1, tau 330–335 (6-mer peptide from MTBR3) (Homo sapiens); test: ELISA; competitive ELISA; plates coated with 250 ng/well purified tau 151-391/4R; DC8E8 0.6 μg/ml (3.8 nM), 60 μl mixed with 40 μl of 200 μM peptide, 1 hour at 25°C, then 1 hour at 25°C on the plate
T1 construct: human tau residues 330-335; numbers count on: the longest human tau isoform (2N4R); also called HKPGGG; source: synthetic peptide, bought: EZBiolab (>95% purity)
T1 chain: HKPGGG

[2] = biological target: T2, tau 268–273 (6-mer peptide from MTBR1) (Homo sapiens); test: as above
T2 construct: numbers count on: the longest human tau isoform (2N4R); also called HQPGGG; source: synthetic peptide, bought: EZBiolab (>95% purity)
T2 chain: HQPGGG

[3] = biological target: T3, tau 299–304 (6-mer peptide from MTBR2, identical to tau 362–367 from MTBR4) (Homo sapiens); test: as above
T3 construct: numbers count on: the longest human tau isoform (2N4R); source: synthetic peptide, bought: EZBiolab (>95% purity)
T3 chain: HVPGGG

[4] = biological target: T4, mis-disordered tau protein 151-391/4R (human, UniProt P10636-8); test: SPR; Biacore 3000, CM5; DC8E8 captured (230 to 250 RU) by coupled polyclonal anti-mouse antibody; twofold serial dilutions of tau proteins injected at 50 μl/min; 25°C, PBS pH 7.4 with 0.005% P20; fitted to a two-phase reaction model
T4 construct: numbers count on: the longest human tau isoform (2N4R); source: purified
T4 sequence (P10636 468-708): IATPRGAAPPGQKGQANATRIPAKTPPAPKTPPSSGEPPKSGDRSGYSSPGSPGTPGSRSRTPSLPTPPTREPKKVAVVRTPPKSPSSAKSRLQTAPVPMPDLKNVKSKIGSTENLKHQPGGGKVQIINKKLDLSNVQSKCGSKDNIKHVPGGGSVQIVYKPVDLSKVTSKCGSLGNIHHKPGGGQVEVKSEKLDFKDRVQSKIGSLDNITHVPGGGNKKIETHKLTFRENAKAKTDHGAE

[5] = biological target: T5, mis-disordered tau 151-391/3R (Homo sapiens, UniProt P10636-5); test: as above
T5 construct: numbers count on: the longest human tau isoform (2N4R); also called three-repeat mis-disordered truncated tau protein
T5 sequence (P10636 other isoform, or with tags, fused parts or gaps): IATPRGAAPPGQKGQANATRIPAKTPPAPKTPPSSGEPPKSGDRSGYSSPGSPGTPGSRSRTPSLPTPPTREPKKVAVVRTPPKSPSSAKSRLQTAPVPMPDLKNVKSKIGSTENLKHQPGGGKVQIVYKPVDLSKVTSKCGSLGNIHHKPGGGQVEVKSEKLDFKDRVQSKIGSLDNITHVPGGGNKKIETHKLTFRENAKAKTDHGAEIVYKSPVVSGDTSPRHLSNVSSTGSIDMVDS

[6] = biological target: T6, human tau protein isoform 2N4R (Homo sapiens, isoform 2N4R (Tau-F, 441 …, UniProt P10636-8)); test: as above
T6 construct: human tau, longest isoform 2N4R (four repeats, two N-terminal inserts); also called full-length tau isoform 2N4R; physiological tau
T6 sequence (P10636 other isoform, or with tags, fused parts or gaps): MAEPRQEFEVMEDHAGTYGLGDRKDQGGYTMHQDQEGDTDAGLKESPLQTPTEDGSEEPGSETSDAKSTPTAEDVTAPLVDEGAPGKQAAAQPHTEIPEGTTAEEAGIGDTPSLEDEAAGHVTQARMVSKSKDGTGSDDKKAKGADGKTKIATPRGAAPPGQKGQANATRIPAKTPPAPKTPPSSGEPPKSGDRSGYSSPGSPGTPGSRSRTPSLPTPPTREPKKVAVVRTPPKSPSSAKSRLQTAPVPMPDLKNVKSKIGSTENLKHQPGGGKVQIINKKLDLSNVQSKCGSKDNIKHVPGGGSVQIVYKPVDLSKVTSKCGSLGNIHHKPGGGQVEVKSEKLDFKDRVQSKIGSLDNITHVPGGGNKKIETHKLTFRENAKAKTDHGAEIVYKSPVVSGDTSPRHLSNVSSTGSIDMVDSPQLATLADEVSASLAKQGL

[7] = biological target: T7, human tau protein isoform 2N3R (Homo sapiens, UniProt P10636-5); test: as above
T7 construct: human tau, isoform 2N3R (three repeats, two N-terminal inserts); also called three-repeat tau protein isoform 2N3R; full-length three-repeat tau protein
T7 sequence (P10636 other isoform, or with tags, fused parts or gaps): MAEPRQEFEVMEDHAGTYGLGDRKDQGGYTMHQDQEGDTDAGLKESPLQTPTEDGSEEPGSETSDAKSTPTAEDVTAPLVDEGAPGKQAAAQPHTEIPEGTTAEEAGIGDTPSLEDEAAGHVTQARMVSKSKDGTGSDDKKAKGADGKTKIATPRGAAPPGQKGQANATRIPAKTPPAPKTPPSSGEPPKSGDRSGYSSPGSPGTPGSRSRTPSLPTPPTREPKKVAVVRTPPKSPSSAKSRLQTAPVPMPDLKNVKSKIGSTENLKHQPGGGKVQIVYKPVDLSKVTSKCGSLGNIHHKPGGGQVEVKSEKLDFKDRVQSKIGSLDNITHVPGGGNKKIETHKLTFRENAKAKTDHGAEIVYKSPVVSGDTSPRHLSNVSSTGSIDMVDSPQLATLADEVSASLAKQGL

B1: monoclonal antibody DC8E8 (antibody, V domains shown)
VH: QVQLQQSGPELVKPGTSVKMPCKASGYIFTDYVISWVKQRTGQGLEWIGEIFPRSGSTYYNEKFKGKATLTADKSSNTAYMQLSSVTSEDSAVYFCARDYYGTSFAMDYWGQGTSVTVSS
VL: DIVMSQSPSSLAVSAGEKVTMSCKSSQSLLNSRTRKNYLAWYQQKPGQSPKLLIYWASTRESGVPDRFTGSGSGTDFTLTISSVQAEDLAVYYCKQSFYLRTFGGGTKLDIK
notes: the Fab of DC8E8 is deposited as PDB 4OZ4 (heavy chain of the Fab); the Fab of DC8E8 is deposited as PDB 4OZ4 (light chain); The crystal structure (4OZ4) is of the papain Fab without antigen; also called mAb DC8E8; source: mouse hybridoma (Balb/c spleen cells fused with NS0); hybridoma culture supernatant (indirect ELISA); purified antibody (protein G Sepharose)
binding result [1]: binds
binding result [2]: binds
binding result [3]: binds
fold affinity against full-length tau isoform 2N4R [4]: 7 fold
koff [4]: 0.04 s⁻¹
kon [4]: 2.9e+06 M⁻¹ s⁻¹
fold affinity against full-length tau isoform 2N3R [5]: 25 fold
koff [5]: 0.08 s⁻¹
kon [5]: 150000 M⁻¹ s⁻¹
koff [6]: 0.04 s⁻¹
kon [6]: 440000 M⁻¹ s⁻¹
koff [7]: 0.4 s⁻¹
kon [7]: 28000 M⁻¹ s⁻¹
